First the molecules themselves.
B1: OR4K15 (parent)
chain: GUUAACGGUCAUAGGCCAUGGAAACUAGGAGCACCAUUUCGCUGCCAGUGAAGAAAUGAACAAAGAAAAUCUGGGCCAGGCAGGCAUCAAAAGAAAUAGUCUUGCGCUCAACCAGAAAGUCUGUAAUCAUUUUAAGGGUA

The variants in the data set derive from B1. Briefly: self-cleavage, relative activity (ratio to wild type); higher = more cleavage; in vitro, sequencing; the parent is a self-cleaving ribozyme.
As to GUUAACGGUCAUAGGCCAUGGAAACUAGGAGCACCAUUUCGCUGCCAGUGAAGAAAUGAGCAAAGAAAUUCUGGGCCAGGCAGGCAUCAAAAGAAAUAGUCUUGCGCUCAACCAGAAAGUCUGUAAUCAUUUUAAGGGUA [A60G A69U], the self-cleavage worked out at 1.67. Then GUUAACGGUCAUAGGCCAUGGAAACUAGGAGCACCAUUUCGCUGCCAGUGAAGAAAUGUACAAAGAAAAUCUGGGCCAGGCAGGCAUCAAAAGAAAUAGUCUUGCGCUCAACCAGAAAGCCUGUAAUCAUUUUAAGGGUA [A59U U120C], with 1.78. The result for GUUAACGGUCAUAGGCCAUGGAAACUAGGAGCACCAUUUCGCUGCCAGUGAAGAAAUGUACAAAGAAAAUCUGGGCCAGGCAGGCAUCAAAAGAAAUAGUCUUGCGCUCAACCAGAAAGUCUGUAAUCAUUUUUAGGGUA [A59U A134U] reads 1.92; that for GUUAACGGUCAUAGGCCAUGGAAACUAGGAGCACCAUUUCGCUGCCAGUGAAGAAAUGUACAAAGAAAAUCUGGGCCAGGCAGGCAUCAAAAGAAAUAGUCUUGCGCUCAACCAGAAAGUCUGUGAUCAUUUUAAGGGUA [A59U A125G], 0.43; that for GUUAACGGUCAUAGGCCAUGGAAACUAGGAGCACCAUUUCGCUGCCAGUGAAGAAAUGUACAAAGAAAAUCCGGGCCAGGCAGGCAUCAAAAGAAAUAGUCUUGCGCUCAACCAGAAAGUCUGUAAUCAUUUUAAGGGUA [A59U U72C], 0.17. Regarding GUUAACGGUCAUAGGCCAUGGAAACUAGGAGCACCAUUUCGCUGCCAGUGAAGAAAUGUACAAAGAAAAUCAGGGCCAGGCAGGCAUCAAAAGAAAUAGUCUUGCGCUCAACCAGAAAGUCUGUAAUCAUUUUAAGGGUA [A59U U72A], the self-cleavage came out at 0.14. On to GUUAACGGUCAUAGGCCAUGGAAACUAGGAGCACCAUUUCGCUGCCAGUGAAGAAAUGUACAAAGAAAAUCUGGGCCAGGCAGGCAUCAAAAGAAAUAGUCUUGCGCACAACCAGAAAGUCUGUAAUCAUUUUAAGGGUA [A59U U108A], for which the self-cleavage was 0.02. On to GUUAACGGUCAUAGGCCAUGGAAACUAGGAGCACCAUUUCGCUGCCAGUGAAGAAAUGUACAAAGAAAACCUGGGCCAGGCAGGCAUCAAAAGAAAUAGUCUUGCGCUCAACCAGAAAGUCUGUAAUCAUUUUAAGGGUA [A59U U70C], for which the self-cleavage is 0.53. Then GUUAACGGUCAUAGGCCAUGGAAACUAGGAGCACCAUUUCGCUGCCAGUGAAGAAAUGAGCAAAGUAAAUCUGGGCCAGGCAGGCAUCAAAAGAAAUAGUCUUGCGCUCAACCAGAAAGUCUGUAAUCAUUUUAAGGGUA [A60G A66U], with 1.26. The result for GUUAACGGUCAUAGGCCAUGGAAACUAGGAGCACCAUUUCGCUGCCAGUGAAGAAAUGACCAAAGAAAAUCUGGGCCAGGCAGGCAUCAAAAGAAAUAGUCUUGCGCUCAACCAGAAAGUCAGUAAUCAUUUUAAGGGUA [A60C U122A] reads 1.74; that for GUUAACGGUCAUAGGCCAUGGAAACUAGGAGCACCAUUUCGCUGCCAGUGAAGAAAUGUACAAAGAAAAUCUGGGCCAGGCAGGCAUCAAAAGAAAUAGUCUUGCGCUCAACCAGAAAGUCCGUAAUCAUUUUAAGGGUA [A59U U122C], 0.69; that for GUUAACGGUCAUAGGCCAUGGAAACUAGGAGCACCAUUUCGCUGCCAGUGAAGAAAUGUACAAAGAAAAUCUGGGCCAGGCAGGCAUCAAAAGAAAUAGUCUCGCGCUCAACCAGAAAGUCUGUAAUCAUUUUAAGGGUA [A59U U103C], 0.31. Then GUUAACGGUCAUAGGCCAUGGAAACUAGGAGCACCAUUUCGCUGCCAGUGAAGAAAUGAGCAAGGAAAAUCUGGGCCAGGCAGGCAUCAAAAGAAAUAGUCUUGCGCUCAACCAGAAAGUCUGUAAUCAUUUUAAGGGUA [A60G A64G], with 1.24; and GUUAACGGUCAUAGGCCAUGGAAACUAGGAGCACCAUUUCGCUGCCAGUGAAGAAAUGACCAAAGAAAAUCUGGGCCAGGCAGGCAUCAAAAGAGAUAGUCUUGCGCUCAACCAGAAAGUCUGUAAUCAUUUUAAGGGUA [A60C A95G], with 1.47. Turning to GUUAACGGUCAUAGGCCAUGGAAACUAGGAGCACCAUUUCGCUGCCAGUGAAGAAAUGAGCAAAGAACAUCUGGGCCAGGCAGGCAUCAAAAGAAAUAGUCUUGCGCUCAACCAGAAAGUCUGUAAUCAUUUUAAGGGUA [A60G A68C], the self-cleavage stood at 1.57. GUUAACGGUCAUAGGCCAUGGAAACUAGGAGCACCAUUUCGCUGCCAGUGAAGAAAUGAGCAAAGAAAAUCUGGGCCAGGCAGGCAUCCAAAGAAAUAGUCUUGCGCUCAACCAGAAAGUCUGUAAUCAUUUUAAGGGUA [A60G A89C]: the self-cleavage came to 1.36.

On to GUUAACGGUCAUAGGCCAUGGAAACUAGGAGCACCAUUUCGCUGCCAGUGAAGAAAUGAGCAAAGAAAAUCUGGGCCAGGCAGGCAUCUAAAGAAAUAGUCUUGCGCUCAACCAGAAAGUCUGUAAUCAUUUUAAGGGUA [A60G A89U], for which the self-cleavage amounted to 1.5. With GUUAACGGUCAUAGGCCAUGGAAACUAGGAGCACCAUUUCGCUGCCAGUGAAGAAAUGAGCAAAGAAAAUCUGGGCCAGGCAGGCAUCGAAAGAAAUAGUCUUGCGCUCAACCAGAAAGUCUGUAAUCAUUUUAAGGGUA [A60G A89G], the self-cleavage is 1.55. Then GUUAACGGUCAUAGGCCAUGGAAACUAGGAGCACCAUUUCGCUGCCAGUGAAGAAAUGUACAAAGAAAAUCUGGGCCAGGCAGGCAUCAAAAGAAAUAGUCUUGCGCUCAACCAGAAAGUCUGUAAUCAUUUUAAGGGUG [A59U A140G], with 2.05.

Take GUUAACGGUCAUAGGCCAUGGAAACUAGGAGCACCAUUUCGCUGCCAGUGAAGAAAUGACCAAAGAAAAUCAGGGCCAGGCAGGCAUCAAAAGAAAUAGUCUUGCGCUCAACCAGAAAGUCUGUAAUCAUUUUAAGGGUA [A60C U72A]: the self-cleavage stood at 0.21.

With GUUAACGGUCAUAGGCCAUGGAAACUAGGAGCACCAUUUCGCUGCCAGUGAAGAAAUGACCAAAGAAGAUCUGGGCCAGGCAGGCAUCAAAAGAAAUAGUCUUGCGCUCAACCAGAAAGUCUGUAAUCAUUUUAAGGGUA [A60C A68G], the self-cleavage was 1.17. Then GUUAACGGUCAUAGGCCAUGGAAACUAGGAGCACCAUUUCGCUGCCAGUGAAGAAAUGACCAAAGAAAAUUUGGGCCAGGCAGGCAUCAAAAGAAAUAGUCUUGCGCUCAACCAGAAAGUCUGUAAUCAUUUUAAGGGUA [A60C C71U], with 0.04; and GUUAACGGUCAUAGGCCAUGGAAACUAGGAGCACCAUUUCGCUGCCAGUGAAGAAAUGUAUAAAGAAAAUCUGGGCCAGGCAGGCAUCAAAAGAAAUAGUCUUGCGCUCAACCAGAAAGUCUGUAAUCAUUUUAAGGGUA [A59U C61U], with 1.53; and GUUAACGGUCAUAGGCCAUGGAAACUAGGAGCACCAUUUCGCUGCCAGUGAAGAAAUGAGCAAAGAAAAUCUGGGCCAGGCCGGCAUCAAAAGAAAUAGUCUUGCGCUCAACCAGAAAGUCUGUAAUCAUUUUAAGGGUA [A60G A82C], with 0.08.

In the case of GUUAACGGUCAUAGGCCAUGGAAACUAGGAGCACCAUUUCGCUGCCAGUGAAGAAAUGAGCAAAGAAAAUCUGGGCCAGGCGGGCAUCAAAAGAAAUAGUCUUGCGCUCAACCAGAAAGUCUGUAAUCAUUUUAAGGGUA [A60G A82G], the self-cleavage was 0.21. Then GUUAACGGUCAUAGGCCAUGGAAACUAGGAGCACCAUUUCGCUGCCAGUGAAGAAAUGAGCAAAGAAAAUCUGGGCCAGGCUGGCAUCAAAAGAAAUAGUCUUGCGCUCAACCAGAAAGUCUGUAAUCAUUUUAAGGGUA [A60G A82U], with 0.12; and GUUAACGGUCAUAGGCCAUGGAAACUAGGAGCACCAUUUCGCUGCCAGUGAAGAAAUGAGCAAAGAAAAUCUGGGCCCGGCAGGCAUCAAAAGAAAUAGUCUUGCGCUCAACCAGAAAGUCUGUAAUCAUUUUAAGGGUA [A60G A78C], with 0.17; and GUUAACGGUCAUAGGCCAUGGAAACUAGGAGCACCAUUUCGCUGCCAGUGAAGAAAUGAGCAAAGAAAAUCUGGGCCUGGCAGGCAUCAAAAGAAAUAGUCUUGCGCUCAACCAGAAAGUCUGUAAUCAUUUUAAGGGUA [A60G A78U], with 0.35. The result for GUUAACGGUCAUAGGCCAUGGAAACUAGGAGCACCAUUUCGCUGCCAGUGAAGAAAUGAGCAAAGAGAAUCUGGGCCAGGCAGGCAUCAAAAGAAAUAGUCUUGCGCUCAACCAGAAAGUCUGUAAUCAUUUUAAGGGUA [A60G A67G] reads 0.84; that for GUUAACGGUCAUAGGCCAUGGAAACUAGGAGCACCAUUUCGCUGCCAGUGAAGAAAUGACCAAAGAAAAUCUGGGCCAGGCAGGCAUCCAAAGAAAUAGUCUUGCGCUCAACCAGAAAGUCUGUAAUCAUUUUAAGGGUA [A60C A89C], 1.8; that for GUUAACGGUCAUAGGCCAUGGAAACUAGGAGCACCAUUUCGCUGCCAGUGAAGAAAUGACCAAAGAAAAUCUGGGCCAGGCAGGCAUCAAAAGAAGUAGUCUUGCGCUCAACCAGAAAGUCUGUAAUCAUUUUAAGGGUA [A60C A96G], 1.77. The result for GUUAACGGUCAUAGGCCAUGGAAACUAGGAGCACCAUUUCGCUGCCAGUGAAGAAAUGUACAAAGAAAAUCUGGGCCAGGCAGGCAUCAAAAGAAAUAGUCUUGCGCUCAACCAGAAAGUCUGUAAUCAUUUUAGGGGUA [A59U A135G] reads 1.33; that for GUUAACGGUCAUAGGCCAUGGAAACUAGGAGCACCAUUUCGCUGCCAGUGAAGAAAUGACCAAAGAAAAUCUGGGCCAGGCAGGCACCAAAAGAAAUAGUCUUGCGCUCAACCAGAAAGUCUGUAAUCAUUUUAAGGGUA [A60C U87C], 1.18; that for GUUAACGGUCAUAGGCCAUGGAAACUAGGAGCACCAUUUCGCUGCCAGUGAAGAAAUGACCAAAGAAAAUCUGGGCCAGGCAGGCAUCAAAAGAAAUAGUCUUGCGCUCAACCAGAAAGUCUGUAAUCAUUUUAUGGGUA [A60C A135U], 1.44. Consider GUUAACGGUCAUAGGCCAUGGAAACUAGGAGCACCAUUUCGCUGCCAGUGAAGAAAUGACCAAAGAAAAUCUGGGCCAGGCAGGCAUCAAAAGAAAUAGUCUUGCGCUCAACCAGAAAGUCUGUAAUCAUUUUAAGGGUA [A60C], for which the self-cleavage stood at 1.7. Then GUUAACGGUCAUAGGCCAUGGAAACUAGGAGCACCAUUUCGCUGCCAGUGAAGAAAUGAGCAAAGAAAAUCUGGGCCAGGCAGGCAUCAAAAGAAAUAGUCUUGCGCUCAACCAGAAAGUCUGUAAUCAUUUUAAGGGUA [A60G], with 1.14; and GUUAACGGUCAUAGGCCAUGGAAACUAGGAGCACCAUUUCGCUGCCAGUGAAGAAAUGUACAAAGAAAAUCUGGGCCAGGCAGGCAUCAAAAGAAAUAGUCUUGCGCUCAACCAGAAAGUCUGUAGUCAUUUUAAGGGUA [A59U A126G], with 1.26; and GUUAACGGUCAUAGGCCAUGGAAACUAGGAGCACCAUUUCGCUGCCAGUGAAGAAAUGACCAAAGAAAAUCUGGGCCAGGCAGGCAUCAAAAGAAAUAGUCUUGCGCUCAACCAGAAAGUCUAUAAUCAUUUUAAGGGUA [A60C G123A], with 1.98.

With GUUAACGGUCAUAGGCCAUGGAAACUAGGAGCACCAUUUCGCUGCCAGUGAAGAAAUGACCAAAGAAAAUCUGGGCCAGGCAGGCAUCAAAAGAAAUAGUCUUGCGCUCAACCAGAAAGUCUGUAAUCACUUUAAGGGUA [A60C U130C], the self-cleavage was found to be 1.4. Consider GUUAACGGUCAUAGGCCAUGGAAACUAGGAGCACCAUUUCGCUGCCAGUGAAGAAAUGAGCAAAGAAAAUCUGGGCCAGGCAGGCGUCAAAAGAAAUAGUCUUGCGCUCAACCAGAAAGUCUGUAAUCAUUUUAAGGGUA [A60G A86G], for which the self-cleavage was determined as 1.36.

Regarding GUUAACGGUCAUAGGCCAUGGAAACUAGGAGCACCAUUUCGCUGCCAGUGAAGAAAUGUACAAAGAAAAUCUGGGCCAGGCAGGCAUCAAAAGAAAUAGUCUUGCGCUCAACCAGAAAGUCUGUAAUCAUAUUAAGGGUA [A59U U131A], the self-cleavage stood at 0.84.

Values taken from the RNAGym collection of RNA variant scans (doi:10.7554/elife.90254).
